Measured values published in the Human Domainome abundance scans (Beltran et al. 2025).
± gives the uncertainty stated by the source.

B1: LIM and senescent cell antigen-like-containing domain protein 2, residues 13 to 71; numbered along this chain, Q7Z4I7 (parent)
chain: AVCQRCQARFSPAERIVNSNGELYHEHCFVCAQCFRPFPEGLFYEFEGRKYCEHDFQML

Variants of: B1
Test: abundance fitness (aPCA) (normalised: wild type 0, dead -1); higher = more abundant; growth selection in yeast, the domain comes from the species named
Details: Homo sapiens

Variant | abundance fitness
AVCQRCQARFSPACRIVNSNGELYHEHCFVCAQCFRPFPEGLFYEFEGRKYCEHDFQML [E14C] | -0.156 ± 0.092
AVCQRCQARFSPADRIVNSNGELYHEHCFVCAQCFRPFPEGLFYEFEGRKYCEHDFQML [E14D] | -0.075 ± 0.11
AVCQRCQARFSPAARIVNSNGELYHEHCFVCAQCFRPFPEGLFYEFEGRKYCEHDFQML [E14A] | 0.048 ± 0.076
AVCQRCQARFSFAERIVNSNGELYHEHCFVCAQCFRPFPEGLFYEFEGRKYCEHDFQML [P12F] | -0.036 ± 0.13
AVCQRCQARFSSAERIVNSNGELYHEHCFVCAQCFRPFPEGLFYEFEGRKYCEHDFQML [P12S] | 0.014 ± 0.061
AVCQRCQARFSCAERIVNSNGELYHEHCFVCAQCFRPFPEGLFYEFEGRKYCEHDFQML [P12C] | 0.188 ± 0.096
AVCQRCQARFSRAERIVNSNGELYHEHCFVCAQCFRPFPEGLFYEFEGRKYCEHDFQML [P12R] | -0.212 ± 0.069
AVCQRCQARFSEAERIVNSNGELYHEHCFVCAQCFRPFPEGLFYEFEGRKYCEHDFQML [P12E] | 0.035 ± 0.12
AVCQRCQARFSHAERIVNSNGELYHEHCFVCAQCFRPFPEGLFYEFEGRKYCEHDFQML [P12H] | 0.186 ± 0.22
AVCQRCQARFSYAERIVNSNGELYHEHCFVCAQCFRPFPEGLFYEFEGRKYCEHDFQML [P12Y] | -0.093 ± 0.23
AVCQRCQARFSIAERIVNSNGELYHEHCFVCAQCFRPFPEGLFYEFEGRKYCEHDFQML [P12I] | 0.045 ± 0.081
AVCQRCQARFSAAERIVNSNGELYHEHCFVCAQCFRPFPEGLFYEFEGRKYCEHDFQML [P12A] | 0.067 ± 0.063
AVCQRCQARFSQAERIVNSNGELYHEHCFVCAQCFRPFPEGLFYEFEGRKYCEHDFQML [P12Q] | -0.126 ± 0.09
AVCQRCQARFSTAERIVNSNGELYHEHCFVCAQCFRPFPEGLFYEFEGRKYCEHDFQML [P12T] | 0.003 ± 0.075
AVCQRCQARFSMAERIVNSNGELYHEHCFVCAQCFRPFPEGLFYEFEGRKYCEHDFQML [P12M] | 0.014 ± 0.09
AVCQRCQARFSGAERIVNSNGELYHEHCFVCAQCFRPFPEGLFYEFEGRKYCEHDFQML [P12G] | -0.047 ± 0.064
AVCQRCQARFSLAERIVNSNGELYHEHCFVCAQCFRPFPEGLFYEFEGRKYCEHDFQML [P12L] | -0.059 ± 0.055
AVCQRCQARFSDAERIVNSNGELYHEHCFVCAQCFRPFPEGLFYEFEGRKYCEHDFQML [P12D] | 0.145 ± 0.22
AVCQRCQARFSNAERIVNSNGELYHEHCFVCAQCFRPFPEGLFYEFEGRKYCEHDFQML [P12N] | -0.109 ± 0.49
AVCQRCQWRFSPAERIVNSNGELYHEHCFVCAQCFRPFPEGLFYEFEGRKYCEHDFQML [A8W] | 0.109 ± 0.051
AVCQRCQAHFSPAERIVNSNGELYHEHCFVCAQCFRPFPEGLFYEFEGRKYCEHDFQML [R9H] | -0.047 ± 0.096
AVCQRCQAPFSPAERIVNSNGELYHEHCFVCAQCFRPFPEGLFYEFEGRKYCEHDFQML [R9P] | 0.051 ± 0.068
AVCQRCQAYFSPAERIVNSNGELYHEHCFVCAQCFRPFPEGLFYEFEGRKYCEHDFQML [R9Y] | -0.292 ± 0.1

Variant | abundance fitness
AVCQRCQANFSPAERIVNSNGELYHEHCFVCAQCFRPFPEGLFYEFEGRKYCEHDFQML [R9N] | -0.135 ± 0.11
AVCQRCQAQFSPAERIVNSNGELYHEHCFVCAQCFRPFPEGLFYEFEGRKYCEHDFQML [R9Q] | 0.039 ± 0.089
AVCQRCQAFFSPAERIVNSNGELYHEHCFVCAQCFRPFPEGLFYEFEGRKYCEHDFQML [R9F] | -0.408 ± 0.12
AVCQRCQALFSPAERIVNSNGELYHEHCFVCAQCFRPFPEGLFYEFEGRKYCEHDFQML [R9L] | -0.122 ± 0.052
AVCQRCQACFSPAERIVNSNGELYHEHCFVCAQCFRPFPEGLFYEFEGRKYCEHDFQML [R9C] | -0.164 ± 0.11
AVCQRCQAAFSPAERIVNSNGELYHEHCFVCAQCFRPFPEGLFYEFEGRKYCEHDFQML [R9A] | -0.104 ± 0.076
AVCQRCQAWFSPAERIVNSNGELYHEHCFVCAQCFRPFPEGLFYEFEGRKYCEHDFQML [R9W] | -0.034 ± 0.079
AVCQRCQAMFSPAERIVNSNGELYHEHCFVCAQCFRPFPEGLFYEFEGRKYCEHDFQML [R9M] | -0.075 ± 0.074
AVCQRCQAEFSPAERIVNSNGELYHEHCFVCAQCFRPFPEGLFYEFEGRKYCEHDFQML [R9E] | -0.084 ± 0.089
AVCQRCQAVFSPAERIVNSNGELYHEHCFVCAQCFRPFPEGLFYEFEGRKYCEHDFQML [R9V] | -0.019 ± 0.063
AVCQRCQASFSPAERIVNSNGELYHEHCFVCAQCFRPFPEGLFYEFEGRKYCEHDFQML [R9S] | 0.212 ± 0.066
AVCQRCQAGFSPAERIVNSNGELYHEHCFVCAQCFRPFPEGLFYEFEGRKYCEHDFQML [R9G] | 0.01 ± 0.07
AVCQRCQADFSPAERIVNSNGELYHEHCFVCAQCFRPFPEGLFYEFEGRKYCEHDFQML [R9D] | -0.019 ± 0.11
AVCQRCQAIFSPAERIVNSNGELYHEHCFVCAQCFRPFPEGLFYEFEGRKYCEHDFQML [R9I] | -0.039 ± 0.14
AVCQRCQATFSPAERIVNSNGELYHEHCFVCAQCFRPFPEGLFYEFEGRKYCEHDFQML [R9T] | -0.019 ± 0.068
AVCQRCQARFIPAERIVNSNGELYHEHCFVCAQCFRPFPEGLFYEFEGRKYCEHDFQML [S11I] | -0.248 ± 0.12
AVCQRCQARFDPAERIVNSNGELYHEHCFVCAQCFRPFPEGLFYEFEGRKYCEHDFQML [S11D] | 0.102 ± 0.091
AVCQRCQARFFPAERIVNSNGELYHEHCFVCAQCFRPFPEGLFYEFEGRKYCEHDFQML [S11F] | -0.227 ± 0.12
AVCQRCQARFRPAERIVNSNGELYHEHCFVCAQCFRPFPEGLFYEFEGRKYCEHDFQML [S11R] | -0.175 ± 0.061
AVCQRCQARFLPAERIVNSNGELYHEHCFVCAQCFRPFPEGLFYEFEGRKYCEHDFQML [S11L] | -0.053 ± 0.05
AVCQRCQARFYPAERIVNSNGELYHEHCFVCAQCFRPFPEGLFYEFEGRKYCEHDFQML [S11Y] | -0.18 ± 0.15
AVCQRCQARFEPAERIVNSNGELYHEHCFVCAQCFRPFPEGLFYEFEGRKYCEHDFQML [S11E] | 0.019 ± 0.078
